The values that follow are results of earlier work, collected in PMC3423493.

The target of one data set is BMP2 (Homo sapiens) (UniProt P12643).
Data set [1] concerns the target Sclerostin (Homo sapiens) (UniProt Q9BQB4).
UniProt Q9BQB4, sequence (Q9BQB4 24-213): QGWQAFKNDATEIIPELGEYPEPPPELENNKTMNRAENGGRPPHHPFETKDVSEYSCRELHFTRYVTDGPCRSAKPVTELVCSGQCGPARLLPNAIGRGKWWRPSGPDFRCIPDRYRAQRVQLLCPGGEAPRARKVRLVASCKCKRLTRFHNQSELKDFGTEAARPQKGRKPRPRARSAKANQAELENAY

UniProt P12643, sequence (P12643 283-396): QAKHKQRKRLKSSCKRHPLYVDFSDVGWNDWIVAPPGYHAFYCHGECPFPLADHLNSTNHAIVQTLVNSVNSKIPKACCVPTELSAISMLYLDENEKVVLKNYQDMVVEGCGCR

Turning to Noggin (from UniProt Q13253), the Kd was 0.02 nM with BMP2 (Homo sapiens) and 2.92 nM in data set [1].

A word on the Kd: it is a measure of binding affinity in units of concentration.
